4 molecules from paper PMC10355216 (2023) can be followed below.

Test [1] has as its target T1, recombinant CSN^ΔCSNAP complex (UniProt Q13098 1-491; Q9UNS2 1-423; Q92905 1-334; Q99627 2-209). Kind of test: SPR. (In general: In SPR one partner is held on a chip, and binding of the other changes the refractive index at the surface.)
The target of test [2] is T1, recombinant CSN^ΔCSNAP complex. Kind of test: SPR. The source holds these as a separate data set.

Where no end group is shown, it is not given here.

B1: full-length CSNAP, C-terminally biotinylated (natural protein)
chain: MKPAVDEMFPEGAGPYVDLDEAGGSTGLLMDLAANEKAVHADFFNDFEDLFDDDDIQ-biotin
For B1, the koff in test [1] amounted to 0.00016 s⁻¹. Besides, in test [2], the Kd is 0.068 nM.

In the case of AVHADFFNDFEDLFDDDDIQ-biotin [20AA C-CSNAP peptide, C-terminally biotinylated], in test [1], the koff was determined as 0.001 s⁻¹. For the same molecule, in test [2], the Kd came out at 0.41 nM.

Take EFFNDFEDLFDDDDIQ-biotin [D42E C-CSNAP peptide, C-terminally biotinylated]: the koff in test [1] worked out at 0.0027 s⁻¹. For the same molecule, in test [2], the Kd stood at 2.5 nM.

For DFFNDFEDLFDDDDIQ-biotin [16AA C-CSNAP peptide, C-terminally biotinylated], in test [1], the koff was 0.0014 s⁻¹. Moreover, the Kd in test [2] was found to be 0.4 nM.

Usually koff stands for the first-order rate constant of dissociation. One may read the Kd as the free concentration of one partner at which half of the binding sites on the other are occupied at equilibrium, for simple one-to-one binding.
